# Test results from FireProtDB (doi:10.1002/cbic.201402128).
# Values joined by “and” are separate entries in the source; they are usually repeats but may differ in a detail not shown here. Equal entries are not always repeated.
# B1: Haloalkane dehalogenase, D4Z2G1 (parent)
# chain: MSLGAKPFGEKKFIEIKGRRMAYIDEGTGDPILFQHGNPTSSYLWRNIMPHCAGLGRLIACDLIGMGDSDKLDPSGPERYAYAEHRDYLDALWEALDLGDRVVLVVHDWGSALGFDWARRHRERVQGIAYMEAIAMPIEWADFPEQDRDLFQAFRSQAGEELVLQDNVFVEQVLPGLILRPLSEAEMAAYREPFLAAGEARRPTLSWPRQIPIAGTPADVVAIARDYAGWLSESPIPKLFINAEPGALTTGRMRDFCRTWPNQTEITVAGAHFIQEDSPDEIGAAIAAFVRRLRPA
# Variants of: B1
# Settings: Sphingobium indicum (strain DSM 16413 / CCM 7287 / MTCC 6362 / UT26 / NBRC 101211 / UT26S); pH 7.5; Thermal; fluorescence; Na-Hepes 50 mM; reversible: no; structure 1MJ5; whole UniProt chain shown
Variant,Tm,"change of melting temperature, mutant - wild type (higher = more stable)"
T264Q,50 °C,-1 °C
V268C S278C,48.5 °C and 46 °C,-2.5 °C and -3 °C
A269P,50 °C,-1 °C
A271I,60.5 °C,9.5 °C
A271V,62 °C,11 °C
Q275P,48 °C,-3 °C
A296H,50 °C,-1 °C
A296R,50.5 °C,-0.5 °C
